Target: Runx2 expressed from pCMV5 Cbfa1 in transfected cells
Test: cell-based or functional assay

transcriptional activity of Runx2 (luciferase reporter, transient transfection in Cos-7 cells; 6xOSE2 artificial promoter and human osteocalcin promoter): 3 fold
Substance: Fhl2 expressed from pCMX Fhl2 in Cos-7 cells (from UniProt Q14192 1-279)

Source: patent publication US20060294600A1
